# In US20220296683A1, “ORAL DELIVERY SYSTEM” (University College Dublin, priority 2019, published 2022):
# Assay: Circular dichroism of secondary structure of SiNP-released peptide
# Type: physicochemical
# Conditions: CD
# From the text: The behaviour of insulin-SiNPs and exenatide-SiNPs in biologically-relevant buffers depended on media pH and salinity. Both constructs aggregated in PBS, while remaining colloidally-stable in simulated small intestinal fluid (SIF) at pH 6.3 (Supplementary FIGS. 18, 19 for insulin-SiNPs and exenatide-SiNPs, respectively). PBS was used to measure the concentration of the released peptide, while SIF was used to examine secondary structure. For insulin-SiNPs (˜300 nm in diameter, particle concentration of 0.2 mg/mL), release was measured by HPLC in simulated gastric fluid (SGF) at pH 2.3, SIF at pH 6.3, and PBS at pH 7.4. […] Exenatide-SiNP dissolved in PBS in a size-dependent fashion: particles of ˜90 nm in diameter dissolved within 60 min at a particle concentration 0.2 mg/mL, while ˜200 nm diameter particles took over 3 h (Supplementary FIG. 20a). […] Parameters used were as follows: • Measurement window: 200-300 nm. • Data pitch: 0.5 nm • Band width: 2 nm • Response: 4 sec • Scanning speed 50 nm/min • Number of runs in measurement (accumulation): 8 • Temperature: Room temperature (20° C.) Insulin, L-arg solutions, mixtures and insulin core and SiNPs were measured at appropriate concentration in an ultra-low volume (1=1 mm) cuvette and at appropriate concentrations. […]
substance,measurement,value
released exenatide: exenatide released from exenatide-SiNPs in PBS,secondary structure of released peptide vs free peptide,comparable to that of the free peptide
